Measured values from the supplement of paper PMC10724198.
± gives the standard deviation of the averaged measurements.
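Also: PSI is a weighted mean of sequencing reads over stability bins, variants kept only with over 10 reads, mCherry proximal and sfGFP distal, peptide attached via GGGS linker.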

What follows are sequences tested on Saccharomyces cerevisiae (assay: protein stability index of tFT-peptide fusion (C-terminal peptide) (PSI (0-1 scale)); higher = more stable (slower turnover)). Details: genetic background: wild type; temperature: 30 C.
Procedure: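 Multiplexed protein stability (MPS) profiling in S. cerevisiae. Random 12-aa peptides (tFT-X12 library) are fused to the C-terminus of a sfGFP-mCherry tandem fluorescent timer, after mCherry and a GGGS linker. Cells are FACS-sorted into 8 mCherry/sfGFP bins and deep-sequenced. The protein stability index (PSI) is the read-weighted bin average, scaled from 0 (unstable) to 1 (stable). Only peptides with >10 reads are reported; cells were grown at 30 °C in SC-His with glucose.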
AADSKERPPRPP gave a protein stability index of 0.625 ± 0.0092.
AAGEGSAPTRDR gave a protein stability index of 0.672 ± 0.028.
Sequence AAGPILAFSVAC has a protein stability index of 0.638 ± 0.039.
For AAGSVFAEGYTG, the protein stability index was 0.686 ± 0.042.
In the case of AAHSQNPPPPSS, the protein stability index is reported as 0.697 ± 0.031.
In the case of AAIARRNIFKAR, the protein stability index is reported as 0.689 ± 0.039.
With AALSTYPLVTCS the protein stability index was 0.547 ± 0.012.
With AARYSRSPRTCF the protein stability index was 0.6507 ± 0.0059.
AASVYAFLPGLY gave a protein stability index of 0.651 ± 0.021.
AATGPPHPPSPP showed a protein stability index of 0.804 ± 0.037.
Work on AAVRPAHRICYS yielded a protein stability index of 0.733 ± 0.041.
AAWGSGMCLCVF gave a protein stability index of 0.559 ± 0.046.
AAWSITFEVLSI showed a protein stability index of 0.59 ± 0.026.
For ACARIGRDYVTP, the protein stability index was 0.687 ± 0.016.
With ACKWGVNKSTLG the protein stability index was 0.703 ± 0.043.
ACLLYSGFSTEL gave a protein stability index of 0.654 ± 0.0066.
ACLPRARLRFHV gave a protein stability index of 0.669 ± 0.027.
For ACRSGTRFAGIW, the protein stability index was 0.703 ± 0.016.
Sequence ACRTGSSLLHPI has a protein stability index of 0.706 ± 0.06.
In the case of ACSLGQSVLVCR, the protein stability index is reported as 0.611 ± 0.02.
With ACSSGGVGWGSV the protein stability index was 0.66 ± 0.034.
ACWGFFIAGVRV was tested, and the protein stability index was 0.598 ± 0.056.
In the case of ADEGRGVGGVGG, the protein stability index is reported as 0.699 ± 0.061.
Sequence ADGGVVLKVMEG has a protein stability index of 0.636 ± 0.077.
For ADRSVGSAACSP, the protein stability index was 0.72 ± 0.15.
ADWGLLVNRSHH gave a protein stability index of 0.725 ± 0.084.
For ADYSRHSCSSSP, the protein stability index was 0.681 ± 0.053.
Sequence AEESPVDKRPKS has a protein stability index of 0.728 ± 0.036.
AENHCIASRIGH gave a protein stability index of 0.659 ± 0.019.
AETPRGDTRLHE showed a protein stability index of 0.699 ± 0.021.
For AFAWERPCEIRF, the protein stability index was 0.6984 ± 0.0063.
AFCKTGSAGVGI showed a protein stability index of 0.634 ± 0.046.
With AFGCGGVPGDFA the protein stability index was 0.63 ± 0.015.
In the case of AFLLPYTSLLLT, the protein stability index is reported as 0.516 ± 0.026.
AFLLSSIRPSLR was tested, and the protein stability index was 0.7486 ± 0.005.
For AFPAQSLRLRCE, the protein stability index was 0.688 ± 0.049.
Work on AFRSISERLGGS yielded a protein stability index of 0.784 ± 0.018.
For AFRVPGSCAFSP, the protein stability index was 0.641 ± 0.011.
AFSTGSIILEPR gave a protein stability index of 0.646 ± 0.016.
AFYLYLSSTSRF showed a protein stability index of 0.662 ± 0.0086.
AGAGGGGAVVVG showed a protein stability index of 0.637 ± 0.039.
In the case of AGCRRGLGMETQ, the protein stability index is reported as 0.648 ± 0.012.
AGCVAVYGVFLG showed a protein stability index of 0.619 ± 0.13.
Sequence AGCVVGWGAWVL has a protein stability index of 0.7035 ± 0.0064.
AGDTCRLRIHVD showed a protein stability index of 0.728 ± 0.021.
AGEGLIRMIVRP showed a protein stability index of 0.694 ± 0.024.
Sequence AGGARADKQGGG has a protein stability index of 0.636 ± 0.071.
With AGGGRGAEGCGG the protein stability index was 0.783 ± 0.069.
Sequence AGGGVKLWWGRE has a protein stability index of 0.657 ± 0.054.
Work on AGGPARWCLEVG yielded a protein stability index of 0.7 ± 0.015.
With AGGRSVCGSALP the protein stability index was 0.661 ± 0.016.
In the case of AGGWLRGGLGVG, the protein stability index is reported as 0.7 ± 0.053.
In the case of AGIFGGGRGVSV, the protein stability index is reported as 0.647 ± 0.039.
With AGIGWGDLASPG the protein stability index was 0.681 ± 0.025.
In the case of AGKVCGVGRLSI, the protein stability index is reported as 0.65 ± 0.033.
With AGLEPGTAALVD the protein stability index was 0.641 ± 0.094.
AGLGLGRVNVMP gave a protein stability index of 0.743 ± 0.03.
For AGLSGRGFLRGA, the protein stability index was 0.6923 ± 0.0062.
In the case of AGMATWGILVSL, the protein stability index is reported as 0.52 ± 0.008.
AGPGGAPVRWCR gave a protein stability index of 0.723 ± 0.037.
AGPKYHLGIPAP gave a protein stability index of 0.678 ± 0.014.
Sequence AGPPSPPLHPVG has a protein stability index of 0.696 ± 0.026.
With AGREREVLFNLH the protein stability index was 0.679 ± 0.067.
AGRFAPAEARVF was tested, and the protein stability index was 0.622 ± 0.056.
Sequence AGRVGVRGVVGG has a protein stability index of 0.748 ± 0.1.
AGRVRERMRVYG showed a protein stability index of 0.639 ± 0.01.
With AGSFGCREAVCP the protein stability index was 0.658 ± 0.044.
AGSSQWSLGQLG gave a protein stability index of 0.6345 ± 0.002.
With AGVGGCVGLGCR the protein stability index was 0.653 ± 0.042.
AHPGHRPSHPPY gave a protein stability index of 0.727 ± 0.08.
AHPPLLPPLLPS showed a protein stability index of 0.639 ± 0.015.
Sequence AHPPSPPPTRRP has a protein stability index of 0.676 ± 0.0079.
Work on AHSAPGHPHDFP yielded a protein stability index of 0.664 ± 0.046.
In the case of AIALASTNLMAG, the protein stability index is reported as 0.713 ± 0.097.
For AIGDLQKAVPLM, the protein stability index was 0.718 ± 0.047.
AILHFTVSPRVY gave a protein stability index of 0.561 ± 0.0097.
AIRRNVYSCVYG was tested, and the protein stability index was 0.603 ± 0.032.
AIYDSFRISYRT showed a protein stability index of 0.675 ± 0.028.
In the case of AIYKGVIVGKKS, the protein stability index is reported as 0.646 ± 0.043.
Work on AKRFQTTWAGRM yielded a protein stability index of 0.61 ± 0.037.
AKSGEVIGSWFG gave a protein stability index of 0.67127 ± 0.00043.
In the case of ALCHASSLHLQS, the protein stability index is reported as 0.724 ± 0.059.
In the case of ALGNFPLGASVS, the protein stability index is reported as 0.676 ± 0.035.
In the case of ALGRTPYSGCFL, the protein stability index is reported as 0.631 ± 0.021.
Sequence ALKLVGSVWFGG has a protein stability index of 0.676 ± 0.15.
With ALLAFMSSPRRL the protein stability index was 0.7001 ± 0.0028.
With ALLPPRPPSPLP the protein stability index was 0.692 ± 0.016.
Work on ALRLLRHTLSSS yielded a protein stability index of 0.703 ± 0.016.
In the case of ALRPYDVQVKFR, the protein stability index is reported as 0.622 ± 0.038.
Work on ALRVHVPPYVPA yielded a protein stability index of 0.6785 ± 0.0049.
For ALSPPSPTPASA, the protein stability index was 0.694 ± 0.049.
ALSPSLWCYFPT gave a protein stability index of 0.71 ± 0.029.
For ALSTALVIPLLY, the protein stability index was 0.58818 ± 0.00035.
For ALSVASVAVVPL, the protein stability index was 0.56 ± 0.015.
For ALVLLIPLSLLL, the protein stability index was 0.522 ± 0.11.
ALVLYVSMSRGY gave a protein stability index of 0.677 ± 0.054.
ALVPESDLGLNF showed a protein stability index of 0.714 ± 0.026.
ALVSRGPCVFGW showed a protein stability index of 0.662 ± 0.045.
Sequence ALYLFHAPRTPP has a protein stability index of 0.637 ± 0.014.
Work on AMSLWFGFFHFV yielded a protein stability index of 0.555 ± 0.018.
ANAPQAEHASVL showed a protein stability index of 0.699 ± 0.021.
Work on ANKNNIQRTISL yielded a protein stability index of 0.756 ± 0.038.
With ANRGYRYGASRV the protein stability index was 0.649 ± 0.017.
Work on APDLPHSTNLPR yielded a protein stability index of 0.741 ± 0.024.
APDPTIPYSPTP showed a protein stability index of 0.717 ± 0.028.
For APGSPLDPLTMF, the protein stability index was 0.6535 ± 0.0041.
Work on APITPNPLYLNH yielded a protein stability index of 0.697 ± 0.055.
Work on APKLWLPYTCQS yielded a protein stability index of 0.705 ± 0.059.
APLGLSFVSAVI showed a protein stability index of 0.793 ± 0.087.
For APNPYHKPPSLR, the protein stability index was 0.701 ± 0.11.
APPAPPLPAIPL showed a protein stability index of 0.675 ± 0.038.
In the case of APPARSSPPPRP, the protein stability index is reported as 0.686 ± 0.039.
For APPHLVTYPLCP, the protein stability index was 0.66 ± 0.067.
APPPAFLPPPPA was tested, and the protein stability index was 0.729 ± 0.048.
Work on APPPAPPLHPPS yielded a protein stability index of 0.739 ± 0.022.
Sequence APPPAPSPPLAP has a protein stability index of 0.69 ± 0.027.
APPPLPSLPPSP gave a protein stability index of 0.701 ± 0.017.
In the case of APPPPAPPPLRP, the protein stability index is reported as 0.724 ± 0.05.
Work on APPPPARDLPPR yielded a protein stability index of 0.721 ± 0.017.
Work on APPPPPPDPPLP yielded a protein stability index of 0.685 ± 0.011.
For APPPRATLPRPP, the protein stability index was 0.673 ± 0.055.
APPPRSPPPPPL showed a protein stability index of 0.6796 ± 0.0067.
With APPSPPSPPGLP the protein stability index was 0.672 ± 0.033.
Work on APPSSYSSPPPS yielded a protein stability index of 0.692 ± 0.017.
With APRPSLTPLSTP the protein stability index was 0.653 ± 0.09.
APRRVPWLLGRV showed a protein stability index of 0.578 ± 0.099.
For APRTPATRPNHP, the protein stability index was 0.723 ± 0.045.
For APSGFRRKDVDL, the protein stability index was 0.68 ± 0.034.
APSGPFLFIMNA gave a protein stability index of 0.663 ± 0.047.
APSGVGANGWGR gave a protein stability index of 0.654 ± 0.0085.
With APSPPSVPSPPP the protein stability index was 0.675 ± 0.0088.
APSRPFPAHPPP was tested, and the protein stability index was 0.602 ± 0.044.
APSRTTERILLL gave a protein stability index of 0.714 ± 0.029.
In the case of APTPPPPPPPLP, the protein stability index is reported as 0.752 ± 0.011.
With APTQANLRSSRS the protein stability index was 0.73 ± 0.022.
APTRVDTAGSCV was tested, and the protein stability index was 0.676 ± 0.051.
APVEVYRHAEAS showed a protein stability index of 0.67 ± 0.035.
With APVSLHVPPCSR the protein stability index was 0.669 ± 0.026.
AQLGQTCDRDGM was tested, and the protein stability index was 0.79 ± 0.17.
AQPCISGLTCRY was tested, and the protein stability index was 0.729 ± 0.0096.
AQPDAFAGVWGV gave a protein stability index of 0.7177 ± 0.0028.
Work on AQTPNPEPLENN yielded a protein stability index of 0.699 ± 0.033.
ARATPLWDLMPP showed a protein stability index of 0.615 ± 0.094.
ARCSPVPWGGGE gave a protein stability index of 0.647 ± 0.033.
In the case of ARGSRNHRGAGA, the protein stability index is reported as 0.738 ± 0.067.
Work on ARIVEQTLCTKS yielded a protein stability index of 0.679 ± 0.057.
In the case of ARLDVFTMYKDR, the protein stability index is reported as 0.748 ± 0.056.
For ARLRSTPVVLPT, the protein stability index was 0.668 ± 0.024.
For ARLSHLQSLRFI, the protein stability index was 0.5476 ± 0.0012.
For ARLSNLPPSPPR, the protein stability index was 0.678 ± 0.032.
Sequence ARNGVCTERSVL has a protein stability index of 0.691 ± 0.028.
With ARNNVRKTEQQC the protein stability index was 0.717 ± 0.11.
With ARPPPPPPSVDP the protein stability index was 0.719 ± 0.011.
ARPPSPRPPPAP gave a protein stability index of 0.675 ± 0.062.
ARPRSGIRGSGV showed a protein stability index of 0.6848 ± 0.0048.
